This is an account of results in US20260098072A1, “METHODS OF STIMULATING APPETITE AND/OR INCREASING BODY WEIGHT USING NON-NATURALLY OCCURRING MELANOCORTIN RECEPTOR ANTAGONIST ANALOGS” (Endevica Bio, Inc., priority 2022, published 2026).

In one series the test system is LPS model of cachexia. The following applies: Sutton et al., Peptides 29 (1): 104-111 (2008); cited from earlier work.
The subject of series [1] is urethane-anesthetized rats. In words: Cardiovascular effects (MAP, heart rate, ECG) in urethane-anesthetized rats. As to conditions: 200 nmol.
Experimental: These studies were performed in urethane-anesthetized rats, since anesthesia is required for six-lead ECG monitoring. […] Initial selection of doses was guided by FDA exploratory IND studies with a recommendation for at least a 100-fold excess of the human dose.

Positions of bridges follow the written chain, without caps; N, C: chain ends. Non-standard residues stand in square brackets, D forms with d. d2Nal = N[C@H](Cc1ccc2ccccc2c1)C(=O)O; Nle = CCCC[C@H](N)C(=O)O

“Ac-NLe-c[Asp-Pro-DNal(2′)-Arg-Trp-Lys]-Pro-Val-NH2 (Ac-[Nle]DP[d2Nal]RWKPV-NH2; lactam 2-7) [PG-932]”: the peripheral activity entry with LPS model of cachexia is on record as “active peripherally”. Further, in series [1], the “Duration” value worked out at 4 ± 3 min, the “Peak Heart Rate Response (BPM)” value was determined as 13 ± 09 BPM and the “Peak MAP Response (Δ mm Hg)” value is listed as 5 ± 3 mm Hg.
